The text below walks through data of patent US20140023715A1 (EMORY UNIVERSITY, published 2014).

The target of this assay is T1, uPAR (species and form not stated).
T1 construct: also called uPA receptor

Where only a bound is given, the exact number is not on record here.

What is called Kd is a measure of binding affinity in units of concentration.

T1 sequence (Q03405 23-305): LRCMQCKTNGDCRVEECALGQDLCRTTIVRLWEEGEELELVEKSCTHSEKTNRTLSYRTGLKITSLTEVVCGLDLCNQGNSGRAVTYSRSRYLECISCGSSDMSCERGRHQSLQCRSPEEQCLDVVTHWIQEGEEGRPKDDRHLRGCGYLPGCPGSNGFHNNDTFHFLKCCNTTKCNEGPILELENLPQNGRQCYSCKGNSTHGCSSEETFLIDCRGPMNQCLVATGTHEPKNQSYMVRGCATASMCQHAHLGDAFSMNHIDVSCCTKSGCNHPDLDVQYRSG

B1: recombinant mouse amino terminal fragment (ATF, 135 aa) of uPA (ligand, UniProt P06869 21-155, looked up)
chain: GSVLGAPDESNCGCQNGGVCVSYKYFSRIRRCSCPRKFQGEHCEIDASKTCYHGNGDSYRGKANTDTKGRPCLAWNAPAVLQKPYNAHRPDAISLGLGKHNYCRNPDNQKRPWCYVQIGLRQFVQECMVHDCSLS
notes: range 1-135; 17 kDa, made in E. coli BL21; also called mouse ATF peptide; murine ATF; not shown: tag from vector pET101/D-TOPO (purified on Ni-NTA)
Molecule B1 showed a Kd below 1 nM.
